Legend:
microtubules = assay: DAPI fluorescence microtubule disassembly (severing) assay; type: biochemical, bovine; settings: 2 μM microtubules, 0.2 μM protein
Procedure: ATPase activity was measured by a modified malachite green method (Kodama et al. (1986) J. Biochem. 99: 1465-1472). ATPase reactions of 50-100 μl, were carried out in a buffer previously used for measuring the ATPase activity of native katanin [20 mM K-HEPES pH 8.0, 25 mM potassium glutamate 2 mM MgCl2, 10% glycerol (v/v), 0.02% Triton X-100 (w/v), 1 mg/ml BSA] (McNally and Vale (1993) Cell, 75: 419-429), except that soybean trypsin inhibitor (SBTI) was replaced by BSA as a carrier protein because SBTI increased background phosphate contamination. […] Microtubule concentration was determined by measuring the absorbance at 275 nm in 6 M guanidine HCl by using a molecular mass of 110 kDa and an extinction coefficient of 1.03 ml mg^−1 cm^−1 (Hackney (1988) Proc. Natl. Acad. Sci. USA, 85: 6314-6318). […]
DAPI severing assays were performed using conditions where the change in fluorescence intensity was linear with the amount of tubulin polymer added (Heusele et al. (1987) Eur. J. Biochem. 165: 613-620). […] The reaction volume was 80 μL, and fluorescence intensity was measured by exciting at 370 nm, and measuring the emission at 450 nm using a model 8100 fluorimeter (SLM Instruments) in photon counting mode.

[1] = ATPase assay (modified malachite green method); type: biochemical, Strongylocentrotus purpuratus
Procedure: ATPase activity was measured by a modified malachite green method (Kodama et al. (1986) J. Biochem. 99: 1465-1472). ATPase reactions of 50-100 μl, were carried out in a buffer previously used for measuring the ATPase activity of native katanin [20 mM K-HEPES pH 8.0, 25 mM potassium glutamate 2 mM MgCl2, 10% glycerol (v/v), 0.02% Triton X-100 (w/v), 1 mg/ml BSA] (McNally and Vale (1993) Cell, 75: 419-429), except that soybean trypsin inhibitor (SBTI) was replaced by BSA as a carrier protein because SBTI increased background phosphate contamination. An ATP regenerating system, consisting of 0.5-1.0 mM phosphoenol pyruvate and 2 units of pyruvate kinase, was included to minimize the inhibition by ADP observed previously for native katanin (McNally and Vale (1993) Cell, 75: 419-429). Microtubules were prepared from bovine brain tubulin (Hyman et al. (1990) Meth. Enzymol. 196: 303-319; and Williams and Lee (1982) Meth Enzymol. 85B: 376-385). After assembly, microtubules were sedimented (230,000×g; 10 min), resuspended in ATPase buffer lacking BSA, and the polymers were resuspended by repeated passage through a 27 gauge needle. Microtubule concentration was determined by measuring the absorbance at 275 nm in 6 M guanidine HCl by using a molecular mass of 110 kDa and an extinction coefficient of 1.03 ml mg^−1 cm^−1 (Hackney (1988) Proc. Natl. Acad. Sci. USA, 85: 6314-6318). ATPase reactions were carried out at room temperature, and were initiated by addition of katanin.

[2] = test system: Taxol-stabilized, rhodamine-labeled microtubules; assay: Microscope-based microtubule severing assay; type: biochemical
Procedure: Microscope-based severing assays were performed using previously published procedures (McNally and Vale (1993) Cell, 75: 419-429), except that microtubules were immobilized by first perfusing flow cells with a bacterially expressed kinesin mutant that binds strongly to microtubules but is unable to hydrolyze ATP (K560, G234A mutant; R. Vale and E. Taylor, unpublished results). Assays were performed in 20 mM Hepes (pH 7.5), 2 mM MgCl2, 1 mM ATP with an oxygen scavenger system consisting of glucose oxidase (220 μg/ml), catalase (36 μg/ml), glucose (22.5 mM), and 2-mercaptoethanol (71.5 mM). Images were captured using a cooled, slow-scan CCD (Photometerics) and processed using Adobe Photoshop.

[3] = literature values for comparison; cited from earlier work

B1: p60: baculovirus-expressed His-tagged S. purpuratus katanin p60 subunit (SEQ ID NO:1), AAA ATPase (protein, listed as Strongylocentrotus purpuratus)
chain: MSVDEICENTKMGREYALLGNYETSLVYYQGVLQQIQKLLTSVHEPQRKHQWQTIRQELSQEYEHVKNITKTLNGFKSEPAAPEPAPNHGRAAPFSHHQHAAKPAAAEPARDPDVWPPPTPVDHRPSPPYQRAARKDPPRRSEPSKPANRAPGNDRGGRGPSDRRGDARSGGGGRGGARGSDKDKNRGGKSDKDKKAPSGEEGDEKKFDPAGYDKDLVENLERDIVQRNPNVHWADIAGLTEAKRLLEEAVVLPLWMPDYFKGIRRPWKGVLMVGPPGTGKTMLAKAVATECGTTFFNVSSASLTSKYHGESEKLVRLLFEMARFYAPSTIFIDEIDSICSKRGTGSEHEASRRVKSELLIQMDGVSGPSAGEESSKMVMVLAATNFPWDIDEALRRRLEKRIYIPLPEIDGREQLLRINLKEVPLADDIDLKSIAEKMDGYSGADITNVCRDASMMAMRRRIQGLRPEEIRHIPKEELNQPSTPADFLLALQKVSKSVGKEDLVKYMAWMEEFGSV
modifications: His tag; katanin p60 subunit
- rate of microtubule disassembly, DAPI fluorescence decrease (in words) (microtubules): half as active as p60/p80
- microtubule concentration at peak ATP turnover stimulation ([1]; decreases at higher microtubule concentrations): ~2 μM tubulin
- time until microtubules were completely disassembled ([2]; 0.1 μM protein, 1 mM ATP): 5 min

B2: NSF: recombinant NSF, AAA ATPase cited for comparison (protein, UniProt P46459 1-744, looked up)
Vesicle-fusing ATPase: MAGRSMQAARCPTDELSLTNCAVVNEKDFQSGQHVIVRTSPNHRYTFTLKTHPSVVPGSIAFSLPQRKWAGLSIGQEIEVSLYTFDKAKQCIGTMTIEIDFLQKKSIDSNPYDTDKMAAEFIQQFNNQAFSVGQQLVFSFNEKLFGLLVKDIEAMDPSILKGEPATGKRQKIEVGLVVGNSQVAFEKAENSSLNLIGKAKTKENRQSIINPDWNFEKMGIGGLDKEFSDIFRRAFASRVFPPEIVEQMGCKHVKGILLYGPPGCGKTLLARQIGKMLNAREPKVVNGPEILNKYVGESEANIRKLFADAEEEQRRLGANSGLHIIIFDEIDAICKQRGSMAGSTGVHDTVVNQLLSKIDGVEQLNNILVIGMTNRPDLIDEALLRPGRLEVKMEIGLPDEKGRLQILHIHTARMRGHQLLSADVDIKELAVETKNFSGAELEGLVRAAQSTAMNRHIKASTKVEVDMEKAESLQVTRGDFLASLENDIKPAFGTNQEDYASYIMNGIIKWGDPVTRVLDDGELLVQQTKNSDRTPLVSVLLEGPPHSGKTALAAKIAEESNFPFIKICSPDKMIGFSETAKCQAMKKIFDDAYKSQLSCVVVDDIERLLDYVPIGPRFSNLVLQALLVLLKKAPPQGRKLLIIGTTSRKDVLQEMEMLNAFSTTIHVPNIATGEQLLEALELLGNFKDKERTTIAQQVKGKKVWIGIKKLLMLIEMSLQMDPEYRVRKFLALLREEGASPLDFD
- ATPase activity of other AAA family members [3]: 0.08 ATP/sec

B3: Katanin: microtubule-severing heterodimer of 60 kDa and 80 kDa subunits; values match recombinant p60/p80 (protein)
chain 1: HHHHHHMSVDEICENTKMGREYALLGNYETSLVYYQGVLQQIQKLLTSVHEPQRKHQWQTIRQELSQEYEHVKNITKTLNGFKSEPAAPEPAPNHGRAAPFSHHQHAAKPAAAEPARDPDVWPPPTPVDHRPSPPYQRAARKDPPRRSEPSKPANRAPGNDRGGRGPSDRRGDARSGGGGRGGARGSDKDKNRGGKSDKDKKAPSGEEGDEKKFDPAGYDKDLVENLERDIVQRNPNVHWADIAGLTEAKRLLEEAVVLPLWMPDYFKGIRRPWKGVLMVGPPGTGKTMLAKAVATECGTTFFNVSSASLTSKYHGESEKLVRLLFEMARFYAPSTIFIDEIDSICSKRGTGSEHEASRRVKSELLIQMDGVSGPSAGEESSKMVMVLAATNFPWDIDEALRRRLEKRIYIPLPEIDGREQLLRINLKEVPLADDIDLKSIAEKMDGYSGADITNVCRDASMMAMRRRIQGLRPEEIRHIPKEELNQPSTPADFLLALQKVSKSVGKEDLVKYMAWMEEFGSV
chain 2: HHHHHHMATKRAWKLQELVAHSSNVNCLALGPMSGRVMVTGGEDKKVNLWAVGKQNCIISLSGHTSPVDSVKFNSSEELVVAGSQSGTMKIYDLEPAKIVRTLTGHRNSIRCMDFHPFGEFVASGSTDTNVKLWDVRRKGCIYTYKGHSDQVNMIKFSPDGKWLVTASEDTTIKLWDLTMGKLFQEFKNHTGGVTGIEFHPNEFLLASGSSDRTVQFWDLETFQLVSSTSPGASAVRSISFHPDGSYLFCSSQDMLHAFGWEPIRCFDTFSVFWGKVADTVIASTQLIGASFNATNVSVYVADLSRMSTTGIAQEPQSQPSKTPSGGAEEVPSKPLTASGRKNFVRERPHTTSSKQRQPDVKSEPERQSPTQDEGVKDDDATDIKDPDSYAKIFSPKTRVDHSPERNAQPFPAPLDVPGAQEPEPFKHPPKPAAAAAVAPVSRAPAPSASDWQPAQANPAPNRVPAATKPVPAQEVAPSRKPDPISTIIPSDRNKPANLDMDAFLPPAHAQQAPRVNAPASRKQSDSERIEGLRKGHDSMCQVLSSRHRNLDVVRAIWTAGDAKTSVESVVNMKDQAILVDILNIMLLKKSLWNLDMCVVVLPRLKELLSSKYENYVHTSCACLKLILKNFTSLFNQNIKCPPSGIDITREERYNKCSKCYSYLIATRGYVEEKQHVSGKLGSSFRELHLLLDQLE
- basal ATPase activity [1]: 0.3 ATP/katanin/sec
- maximal microtubule-stimulated ATPase rate [1]: 3 ATP/katanin/sec

B4: p80: baculovirus-expressed His-tagged S. purpuratus katanin p80 subunit (SEQ ID NO:2), contains WD40 repeats (protein, listed as Strongylocentrotus purpuratus)
chain: MATKRAWKLQELVAHSSNVNCLALGPMSGRVMVTGGEDKKVNLWAVGKQNCIISLSGHTSPVDSVKFNSSEELVVAGSQSGTMKIYDLEPAKIVRTLTGHRNSIRCMDFHPFGEFVASGSTDTNVKLWDVRRKGCIYTYKGHSDQVNMIKFSPDGKWLVTASEDTTIKLWDLTMGKLFQEFKNHTGGVTGIEFHPNEFLLASGSSDRTVQFWDLETFQLVSSTSPGASAVRSISFHPDGSYLFCSSQDMLHAFGWEPIRCFDTFSVFWGKVADTVIASTQLIGASFNATNVSVYVADLSRMSTTGIAQEPQSQPSKTPSGGAEEVPSKPLTASGRKNFVRERPHTTSSKQRQPDVKSEPERQSPTQDEGVKDDDATDIKDPDSYAKIFSPKTRVDHSPERNAQPFPAPLDVPGAQEPEPFKHPPKPAAAAAVAPVSRAPAPSASDWQPAQANPAPNRVPAATKPVPAQEVAPSRKPDPISTIIPSDRNKPANLDMDAFLPPAHAQQAPRVNAPASRKQSDSERIEGLRKGHDSMCQVLSSRHRNLDVVRAIWTAGDAKTSVESVVNMKDQAILVDILNIMLLKKSLWNLDMCVVVLPRLKELLSSKYENYVHTSCACLKLILKNFTSLFNQNIKCPPSGIDITREERYNKCSKCYSYLIATRGYVEEKQHVSGKLGSSFRELHLLLDQLE
modifications: His tag; katanin p80 subunit
- rate of microtubule disassembly, DAPI fluorescence decrease (in words) (microtubules): did not cause a change in fluorescence
- ATPase activity (in words) [1]: no detectable ATPase activity
- microtubule severing (in words) ([2]; concentrations 5-fold higher than those used for p60 (0.5 μM)): unable to sever microtubules

Source: US6872537B1, “Assays for the detection of microtubule depolymerization inhibitors” (Regents of the University of California, priority 1998, dated 2005)
